Experimental data as given in patent US20240383953A1 (BAYLOR COLLEGE OF MEDICINE, published 2024).

Molecular target: the molecule itself
Test: DSSO chemical crosslinking in HEK 293T cells
Source text: Applicant tested if endogenous NANOG could spontaneously assemble in H9 human embryonic stem cells (ESCs) as well as nucleofected NANOG in differentiated HEK 293T mammalian cells.

B1: NANOG ΔWR deletion mutant expressed in HEK 293T cells (other, human, UniProt Q9H9S0 1-305, looked up)
chain: MSVDPACPQSLPCFEASDCKESSPMPVICGPEENYPSLQMSSAEMPHTETVSPLPSSMDLLIQDSPDSSTSPKGKQPTSAEKSVAKKEDKVPVKKQKTRTVFSSTQLCVLNDRFQRQKYLSLQQMQELSNILNLSYKQVKTWFQNQRMKSKRWQKNNWPKNSNGVTQKASAPTYPSLYSSYHQGCLVNPTGNLPMYNCGEESLQSCMQFQPNSPASDLEAALEAAGEGLNVIQQTTRYFSTPQTMDLFLNYSMNMQPEDV
notes: whole, on cells; also called WR mutants
- binding result: no binding
